From patent US10227388B2, “Peptides and combination of peptides for use in immunotherapy against non-small cell lung cancer and other cancers” (immatics biotechnologies GmbH, priority 2015, dated 2019)

What follows are substances tested against HLA-A*02:01 (Homo sapiens, UniProt P04439, D140Y/D185E/D98H/E176V/E277Q/G131W/G231S/I119V/I121R/I166T/I218V/L300P/L318F/N151K/N90K/P208A/P217A/Q86G/Q94H/R138H/R169H/T345S) (assay: MHC binding assay (UV-ligand exchange, ELISA, peptide exchange yield)). Settings: binding of HLA-class I restricted peptides to HLA-A*02:01.
Summary of the method: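 Exchange yield was quantified as stabilized β2m-containing complex: monomers diluted 100-fold bound to streptavidin-coated wells, probed with HRP-conjugated anti-β2m, read at 450 nm after TMB. Complexes had been generated by UV cleavage of a photolabile ligand and replacement with the candidate peptide.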

Substance	Peptide exchange (MHC class I binding score, peptide exchange yield)
180 (FQIDPHSGLVTV; listed as Homo sapiens) [compound 180]	″++″ (≥20% = ++)
181 (LLWAGTAFQV; listed as Homo sapiens) [compound 181]	″+++″ (≥50% = +++)
182 (MLLEAPGIFL; listed as Homo sapiens) [compound 182]	″+++″ (≥50% = +++)
183 (FGLDLVTEL; listed as Homo sapiens) [compound 183]	″+++″ (≥50% = +++)
184 (YLMDINGKMWL; listed as Homo sapiens) [compound 184]	″+++″ (≥50% = +++)
185 (FLIDDKGYTL; listed as Homo sapiens) [compound 185]	″++″ (≥20% = ++)
186 (TLFFQQNAL; listed as Homo sapiens) [compound 186]	″++″ (≥20% = ++)
187 (RQISIRGIVGV; listed as Homo sapiens) [compound 187]	″+++″ (≥50% = +++)
188 (GLFPVTPEAV; listed as Homo sapiens) [compound 188]	″+++″ (≥50% = +++)
189 (ALQRKLPYV; listed as Homo sapiens) [compound 189]	″+++″ (≥50% = +++)
190 (FLSSLTETI; listed as Homo sapiens) [compound 190]	″+++″ (≥50% = +++)
191 (LLQEGQALEYV; listed as Homo sapiens) [compound 191]	″++″ (≥20% = ++)
192 (KMLDGASFTL; listed as Homo sapiens) [compound 192]	″+++″ (≥50% = +++)
193 (QLLDADGFLNV; listed as Homo sapiens) [compound 193]	″+++″ (≥50% = +++)
194 (ALPLFVITV; listed as Homo sapiens) [compound 194]	″+++″ (≥50% = +++)
195 (GLFADLLPRL; listed as Homo sapiens) [compound 195]	″+++″ (≥50% = +++)
196 (YLYSVEIKL; listed as Homo sapiens) [compound 196]	″++++″ (≥75% = ++++)
197 (ALGPEGGRV; listed as Homo sapiens) [compound 197]	″++″ (≥20% = ++)
198 (KTINKVPTV; listed as Homo sapiens) [compound 198]	″+++″ (≥50% = +++)
200 (LLFGSVQEV; listed as Homo sapiens) [compound 200]	″+++″ (≥50% = +++)
201 (RLVDYLEGI; listed as Homo sapiens) [compound 201]	″+++″ (≥50% = +++)

Substance	Peptide exchange (MHC class I binding score, peptide exchange yield)
202 (ALLDQQGSRWTL; listed as Homo sapiens) [compound 202]	″+++″ (≥50% = +++)
204 (KIAENVEEV; listed as Homo sapiens) [compound 204]	″++″ (≥20% = ++)
205 (SLYPGTETMGL; listed as Homo sapiens) [compound 205]	″+++″ (≥50% = +++)
206 (VLQEGKLQKLAQL; listed as Homo sapiens) [compound 206]	″+++″ (≥50% = +++)
207 (GLTSTNAEV; listed as Homo sapiens) [compound 207]	″++″ (≥20% = ++)
208 (KISPVTFSV; listed as Homo sapiens) [compound 208]	″+++″ (≥50% = +++)
209 (KLIESKHEV; listed as Homo sapiens) [compound 209]	″++″ (≥20% = ++)
210 (LLLNAVLTV; listed as Homo sapiens) [compound 210]	″++″ (≥20% = ++)
211 (LLWPGAALL; listed as Homo sapiens) [compound 211]	″++″ (≥20% = ++)
212 (ALWDQDNLSV; listed as Homo sapiens) [compound 212]	″++″ (≥20% = ++)
214 (FLLDLDPLLL; listed as Homo sapiens) [compound 214]	″+++″ (≥50% = +++)
215 (QLINHLHAV; listed as Homo sapiens) [compound 215]	″+++″ (≥50% = +++)
216 (NLWEDPYYL; listed as Homo sapiens) [compound 216]	″+++″ (≥50% = +++)
217 (ALIHPVSTV; listed as Homo sapiens) [compound 217]	″++″ (≥20% = ++)
218 (SALEELVNV; listed as Homo sapiens) [compound 218]	″++″ (≥20% = ++)
219 (KLSDIGITV; listed as Homo sapiens) [compound 219]	″+++″ (≥50% = +++)
220 (LLQKFVPEI; listed as Homo sapiens) [compound 220]	″++″ (≥20% = ++)
221 (ALYEEGLLL; listed as Homo sapiens) [compound 221]	″++″ (≥20% = ++)
222 (NLIENVQRL; listed as Homo sapiens) [compound 222]	″++″ (≥20% = ++)
223 (ALLENIALYL; listed as Homo sapiens) [compound 223]	″+++″ (≥50% = +++)
224 (TLIDAQWVL; listed as Homo sapiens) [compound 224]	″+++″ (≥50% = +++)

Substance	Peptide exchange (MHC class I binding score, peptide exchange yield)
225 (SLLKVLPAL; listed as Homo sapiens) [compound 225]	″+++″ (≥50% = +++)
226 (MLYVVPIYL; listed as Homo sapiens) [compound 226]	″++″ (≥20% = ++)
227 (ALMNTLLYL; listed as Homo sapiens) [compound 227]	″++″ (≥20% = ++)
228 (AMQEYIAVV; listed as Homo sapiens) [compound 228]	″++″ (≥20% = ++)
229 (RLPGPLGTV; listed as Homo sapiens) [compound 229]	″++″ (≥20% = ++)
230 (ILVDWLVEV; listed as Homo sapiens) [compound 230]	″+″ (≥10% = +)
231 (FLSPQQPPLLL; listed as Homo sapiens) [compound 231]	″++″ (≥20% = ++)
232 (ALLEAQDVELYL; listed as Homo sapiens) [compound 232]	″++″ (≥20% = ++)
233 (VLSETLYEL; listed as Homo sapiens) [compound 233]	″++″ (≥20% = ++)
234 (ALMEDTGRQML; listed as Homo sapiens) [compound 234]	″++″ (≥20% = ++)
235 (YLNDLHEVLL; listed as Homo sapiens) [compound 235]	″++++″ (≥75% = ++++)
236 (GLLEAKVSL; listed as Homo sapiens) [compound 236]	″+++″ (≥50% = +++)
237 (ALLEASGTLLL; listed as Homo sapiens) [compound 237]	″++++″ (≥75% = ++++)
238 (YLISFQTHI; listed as Homo sapiens) [compound 238]	″+++″ (≥50% = +++)
239 (AAFAGKLLSV; listed as Homo sapiens) [compound 239]	″+++″ (≥50% = +++)
240 (ILLEQAFYL; listed as Homo sapiens) [compound 240]	″+++″ (≥50% = +++)
241 (SLVEVNPAYSV; listed as Homo sapiens) [compound 241]	″+++″ (≥50% = +++)
242 (AIAYILQGV; listed as Homo sapiens) [compound 242]	″++″ (≥20% = ++)
243 (LLLNELPSV; listed as Homo sapiens) [compound 243]	″+++″ (≥50% = +++)
